Laboratory results as given in US20200079833A1 (AstraZeneca / MedImmune, published 2020).
Starred links: 1 amine or outer side, 2 acyl side, 3 side chain; linkers in the order of their positions; H or OH if unused. Non-standard residues stand in square brackets, D forms with d. Groups on a side chain read outwards from the residue. No end group written: not given here. *: point of attachment. γGlu = O=C(O)[C@H](CCC(=O)[*:2])N[*:1]; Palmitoyl = CCCCCCCCCCCCCCCC(=O)*; αMeF = C[C@](N)(Cc1ccccc1)C(=O)O; αMeK = C[C@](N)(CCCCN)C(=O)O; αMeS = C[C@](N)(CO)C(=O)O; Aib = CC(C)(N)C(=O)O

T1: glucose-dependent insulinotropic peptide (gastric inhibitory polypeptide) receptor (human, UniProt P48546 22-466)
T1 sequence (looked up): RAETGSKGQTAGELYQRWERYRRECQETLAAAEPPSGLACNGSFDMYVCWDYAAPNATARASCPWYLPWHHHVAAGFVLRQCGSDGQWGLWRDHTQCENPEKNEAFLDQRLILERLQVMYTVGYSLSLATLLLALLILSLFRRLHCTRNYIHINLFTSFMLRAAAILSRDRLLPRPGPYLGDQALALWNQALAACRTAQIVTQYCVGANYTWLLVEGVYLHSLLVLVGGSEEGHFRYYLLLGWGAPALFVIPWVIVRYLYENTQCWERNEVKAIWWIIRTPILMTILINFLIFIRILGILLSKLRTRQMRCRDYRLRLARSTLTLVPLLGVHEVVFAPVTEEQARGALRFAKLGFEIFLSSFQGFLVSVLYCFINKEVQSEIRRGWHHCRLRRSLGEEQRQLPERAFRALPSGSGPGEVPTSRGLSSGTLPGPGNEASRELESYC


Experiments:
Assay in all cases: cell-based or functional assay
glucagon receptor = glucagon receptor (human, UniProt P47871 26-477)
GLP-1 receptor = GLP-1 receptor (human, UniProt P43220 24-463)
[1] = biological target: T1, glucose-dependent insulinotropic …

glucagon receptor, sequence (P47871 26-477): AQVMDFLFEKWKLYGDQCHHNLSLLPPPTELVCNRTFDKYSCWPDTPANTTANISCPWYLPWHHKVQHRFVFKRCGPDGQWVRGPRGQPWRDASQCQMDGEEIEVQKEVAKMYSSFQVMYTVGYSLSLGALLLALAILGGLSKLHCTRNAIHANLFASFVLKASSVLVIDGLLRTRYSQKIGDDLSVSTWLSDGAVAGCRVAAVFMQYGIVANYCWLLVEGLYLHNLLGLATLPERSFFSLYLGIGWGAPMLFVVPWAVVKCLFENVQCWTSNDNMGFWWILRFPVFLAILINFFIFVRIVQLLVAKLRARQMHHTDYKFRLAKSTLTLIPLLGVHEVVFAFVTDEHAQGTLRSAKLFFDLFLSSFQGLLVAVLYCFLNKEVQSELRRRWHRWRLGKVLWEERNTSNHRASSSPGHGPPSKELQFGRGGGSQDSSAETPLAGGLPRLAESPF

Primary assay EC50 (cAMP), n1 (glucagon receptor)	Primary assay EC50 (cAMP), n2 (glucagon receptor)	Primary assay EC50 (cAMP), Mean pM GLP-1R (GLP-1 receptor)	Primary assay EC50 (cAMP), n1 (GLP-1 receptor)	Primary assay EC50 (cAMP), n2 (GLP-1 receptor)	Primary assay EC50 (cAMP), n1 [1]	Primary assay EC50 (cAMP), n2 [1]	Binder
28 nM	28 nM	146 pM	0.13 nM	0.16 nM	28 nM	28 nM	H[Aib]EGS[αMeF]TSDV[αMeS]S[αMeF]LEGEAA[αMeK]E[αMeF]IA[αMeF]VK([γGlu-Palmitoyl])[αMeK]GG-NH2 (N-terminus assumed; SMILES CCCCCCCCCCCCCCCC(=O)N[C@@H](CCC(=O)NCCCC[C@H](NC(=O)[C@@H](NC(=O)[C@](C)(Cc1ccccc1)NC(=O)[C@H](C)NC(=O)[C@@H](NC(=O)[C@](C)(Cc1ccccc1)NC(=O)[C@H](CCC(=O)O)NC(=O)[C@](C)(CCCCN)NC(=O)[C@H](C)NC(=O)[C@H](C)NC(=O)[C@H](CCC(=O)O)NC(=O)CNC(=O)[C@H](CCC(=O)O)NC(=O)[C@H](CC(C)C)NC(=O)[C@](C)(Cc1ccccc1)NC(=O)[C@H](CO)NC(=O)[C@](C)(CO)NC(=O)[C@@H](NC(=O)[C@H](CC(=O)O)NC(=O)[C@H](CO)NC(=O)[C@@H](NC(=O)[C@](C)(Cc1ccccc1)NC(=O)[C@H](CO)NC(=O)CNC(=O)[C@H](CCC(=O)O)NC(=O)C(C)(C)NC(=O)[C@@H](N)Cc1c[nH]cn1)[C@@H](C)O)C(C)C)[C@@H](C)CC)C(C)C)C(=O)N[C@@](C)(CCCCN)C(=O)NCC(=O)NCC(N)=O)C(=O)O) [SEQ ID NO 73]
27 nM	27 nM	7.1 pM	0.0062 nM	0.008 nM	27 nM	27 nM	H[Aib]EGS[αMeF]TSDV[αMeS]S[αMeF]LEGEAA[αMeK]E[αMeF]IA[αMeF]VV[αMeK]K([γGlu-Palmitoyl])G-NH2 (N-terminus assumed; SMILES CCCCCCCCCCCCCCCC(=O)N[C@@H](CCC(=O)NCCCC[C@H](NC(=O)[C@](C)(CCCCN)NC(=O)[C@@H](NC(=O)[C@@H](NC(=O)[C@](C)(Cc1ccccc1)NC(=O)[C@H](C)NC(=O)[C@@H](NC(=O)[C@](C)(Cc1ccccc1)NC(=O)[C@H](CCC(=O)O)NC(=O)[C@](C)(CCCCN)NC(=O)[C@H](C)NC(=O)[C@H](C)NC(=O)[C@H](CCC(=O)O)NC(=O)CNC(=O)[C@H](CCC(=O)O)NC(=O)[C@H](CC(C)C)NC(=O)[C@](C)(Cc1ccccc1)NC(=O)[C@H](CO)NC(=O)[C@](C)(CO)NC(=O)[C@@H](NC(=O)[C@H](CC(=O)O)NC(=O)[C@H](CO)NC(=O)[C@@H](NC(=O)[C@](C)(Cc1ccccc1)NC(=O)[C@H](CO)NC(=O)CNC(=O)[C@H](CCC(=O)O)NC(=O)C(C)(C)NC(=O)[C@@H](N)Cc1c[nH]cn1)[C@@H](C)O)C(C)C)[C@@H](C)CC)C(C)C)C(C)C)C(=O)NCC(N)=O)C(=O)O) [SEQ ID NO 71]
27 nM	27 nM	83 pM	0.074 nM	0.092 nM	27 nM	27 nM	H[Aib]EGS[αMeF]TSDV[αMeS]S[αMeF]LEGEAA[αMeK]E[αMeF]IA[αMeF]VV[αMeK]GK([γGlu-Palmitoyl])-NH2 (N-terminus assumed; SMILES CCCCCCCCCCCCCCCC(=O)N[C@@H](CCC(=O)NCCCC[C@H](NC(=O)CNC(=O)[C@](C)(CCCCN)NC(=O)[C@@H](NC(=O)[C@@H](NC(=O)[C@](C)(Cc1ccccc1)NC(=O)[C@H](C)NC(=O)[C@@H](NC(=O)[C@](C)(Cc1ccccc1)NC(=O)[C@H](CCC(=O)O)NC(=O)[C@](C)(CCCCN)NC(=O)[C@H](C)NC(=O)[C@H](C)NC(=O)[C@H](CCC(=O)O)NC(=O)CNC(=O)[C@H](CCC(=O)O)NC(=O)[C@H](CC(C)C)NC(=O)[C@](C)(Cc1ccccc1)NC(=O)[C@H](CO)NC(=O)[C@](C)(CO)NC(=O)[C@@H](NC(=O)[C@H](CC(=O)O)NC(=O)[C@H](CO)NC(=O)[C@@H](NC(=O)[C@](C)(Cc1ccccc1)NC(=O)[C@H](CO)NC(=O)CNC(=O)[C@H](CCC(=O)O)NC(=O)C(C)(C)NC(=O)[C@@H](N)Cc1c[nH]cn1)[C@@H](C)O)C(C)C)[C@@H](C)CC)C(C)C)C(C)C)C(N)=O)C(=O)O) [SEQ ID NO 70]

The next lines start with the binder.

Binder	Primary assay EC50 (cAMP), n1 (glucagon receptor)	Primary assay EC50 (cAMP), n2 (glucagon receptor)	Primary assay EC50 (cAMP), Mean pM GLP-1R (GLP-1 receptor)	Primary assay EC50 (cAMP), n1 (GLP-1 receptor)	Primary assay EC50 (cAMP), n2 (GLP-1 receptor)	Primary assay EC50 (cAMP), n1 [1]	Primary assay EC50 (cAMP), n2 [1]
H[Aib]EGS[αMeF]TSDV[αMeS]S[αMeF]LEGEAA[αMeK]E[αMeF]IAK([γGlu-Palmitoyl])VV[αMeK]GG-NH2 (N-terminus assumed; SMILES CCCCCCCCCCCCCCCC(=O)N[C@@H](CCC(=O)NCCCC[C@H](NC(=O)[C@H](C)NC(=O)[C@@H](NC(=O)[C@](C)(Cc1ccccc1)NC(=O)[C@H](CCC(=O)O)NC(=O)[C@](C)(CCCCN)NC(=O)[C@H](C)NC(=O)[C@H](C)NC(=O)[C@H](CCC(=O)O)NC(=O)CNC(=O)[C@H](CCC(=O)O)NC(=O)[C@H](CC(C)C)NC(=O)[C@](C)(Cc1ccccc1)NC(=O)[C@H](CO)NC(=O)[C@](C)(CO)NC(=O)[C@@H](NC(=O)[C@H](CC(=O)O)NC(=O)[C@H](CO)NC(=O)[C@@H](NC(=O)[C@](C)(Cc1ccccc1)NC(=O)[C@H](CO)NC(=O)CNC(=O)[C@H](CCC(=O)O)NC(=O)C(C)(C)NC(=O)[C@@H](N)Cc1c[nH]cn1)[C@@H](C)O)C(C)C)[C@@H](C)CC)C(=O)N[C@H](C(=O)N[C@H](C(=O)N[C@@](C)(CCCCN)C(=O)NCC(=O)NCC(N)=O)C(C)C)C(C)C)C(=O)O) [SEQ ID NO 75]	28 nM	28 nM	1.7 pM	0.002 nM	0.0014 nM	28 nM	28 nM
H[Aib]EGS[αMeF]TSDV[αMeS]S[αMeF]LEGEAA[αMeK]E[αMeF]IA[αMeF]K([γGlu-Palmitoyl])V[αMeK]GG-NH2 (N-terminus assumed; SMILES CCCCCCCCCCCCCCCC(=O)N[C@@H](CCC(=O)NCCCC[C@H](NC(=O)[C@](C)(Cc1ccccc1)NC(=O)[C@H](C)NC(=O)[C@@H](NC(=O)[C@](C)(Cc1ccccc1)NC(=O)[C@H](CCC(=O)O)NC(=O)[C@](C)(CCCCN)NC(=O)[C@H](C)NC(=O)[C@H](C)NC(=O)[C@H](CCC(=O)O)NC(=O)CNC(=O)[C@H](CCC(=O)O)NC(=O)[C@H](CC(C)C)NC(=O)[C@](C)(Cc1ccccc1)NC(=O)[C@H](CO)NC(=O)[C@](C)(CO)NC(=O)[C@@H](NC(=O)[C@H](CC(=O)O)NC(=O)[C@H](CO)NC(=O)[C@@H](NC(=O)[C@](C)(Cc1ccccc1)NC(=O)[C@H](CO)NC(=O)CNC(=O)[C@H](CCC(=O)O)NC(=O)C(C)(C)NC(=O)[C@@H](N)Cc1c[nH]cn1)[C@@H](C)O)C(C)C)[C@@H](C)CC)C(=O)N[C@H](C(=O)N[C@@](C)(CCCCN)C(=O)NCC(=O)NCC(N)=O)C(C)C)C(=O)O) [SEQ ID NO 74]	28 nM	28 nM	2.1 pM	0.0023 nM	0.002 nM	28 nM	28 nM
H[Aib]EGS[αMeF]TSDV[αMeS]S[αMeF]LEGEAA[αMeK]E[αMeF]IA[αMeF]VVK([γGlu-Palmitoyl])GG-NH2 (N-terminus assumed; SMILES CCCCCCCCCCCCCCCC(=O)N[C@@H](CCC(=O)NCCCC[C@H](NC(=O)[C@@H](NC(=O)[C@@H](NC(=O)[C@](C)(Cc1ccccc1)NC(=O)[C@H](C)NC(=O)[C@@H](NC(=O)[C@](C)(Cc1ccccc1)NC(=O)[C@H](CCC(=O)O)NC(=O)[C@](C)(CCCCN)NC(=O)[C@H](C)NC(=O)[C@H](C)NC(=O)[C@H](CCC(=O)O)NC(=O)CNC(=O)[C@H](CCC(=O)O)NC(=O)[C@H](CC(C)C)NC(=O)[C@](C)(Cc1ccccc1)NC(=O)[C@H](CO)NC(=O)[C@](C)(CO)NC(=O)[C@@H](NC(=O)[C@H](CC(=O)O)NC(=O)[C@H](CO)NC(=O)[C@@H](NC(=O)[C@](C)(Cc1ccccc1)NC(=O)[C@H](CO)NC(=O)CNC(=O)[C@H](CCC(=O)O)NC(=O)C(C)(C)NC(=O)[C@@H](N)Cc1c[nH]cn1)[C@@H](C)O)C(C)C)[C@@H](C)CC)C(C)C)C(C)C)C(=O)NCC(=O)NCC(N)=O)C(=O)O) [SEQ ID NO 72]	28 nM	28 nM	49 pM	0.046 nM	0.052 nM	28 nM	28 nM
